Measured values from PMC3197879.

Target: YFP-PAX5-Foldon (not stated | phage T4) (UniProt P10104)
Assay: SEC

stoichiometry N: 3
Substance: YFP-PAX5-Foldon (from UniProt P10104 458-484)
